Target: HA head domain of A/Hong Kong/1/1968 (H3N2) (Influenza A virus A/Hong Kong/1/1968 …, strain)
Assay: ELISA
Conditions: both partners purified

B1: FluA-20 mAb (antibody, V domains shown)
VH: QVQLEESGPGLVKPSETLSLTCSVSGVSVTSDIYYWTWIRQPPGKGLEWIGYIFYNGDTNYNPSLKSRVTMSIDTSKNEFSLRLTSVTAADTAVYFCARGTEDLGYCSSGSCPNHWGQGTLVTVSS
VL: DIVMTQSPSSLSASIGDRVTITCRPSQNIRSFLNWFQHKPGKAPKLLIYAASNLQSGVPSRFSGSGSGTEFTLTIRSLQPEDFATYYCQQSYNTPPTFGQGTKVEIK
B1: binds.

Source: doi:10.1101/2025.11.04.686334 (bioRxiv, 2025)
